From paper PMC9133651, “Elucidation of physico-chemical principles of high-density lipoprotein–small RNA binding interactions” come the findings set out here.

Common to all, as to assay: MST
Common to all, as to conditions: MST: 100 nM AF647 oligo (90 C 2 min, cooled) mixed 1:1 with ligand in PBS, RT, 5 min; EMSA: 1 uM AF546 oligo, UV 254 nm 15 min on ice, 4-16% NativePAGE, 0.5x …

In series [1] the target is native HDL (DGUC-HDL, apoA-I-containing lipoprotein particle) (Homo sapiens) (UniProt P02647).
For series [2] the target is unchanged. This is another data set of the same source.
For series [3] the target is unchanged. This is another data set of the same source.
Series [4] shares this target. This is another data set of the same source.

native HDL (DGUC-HDL, apoA-I-containing lipoprotein particle) (Homo sapiens), sequence (P02647 whole entry): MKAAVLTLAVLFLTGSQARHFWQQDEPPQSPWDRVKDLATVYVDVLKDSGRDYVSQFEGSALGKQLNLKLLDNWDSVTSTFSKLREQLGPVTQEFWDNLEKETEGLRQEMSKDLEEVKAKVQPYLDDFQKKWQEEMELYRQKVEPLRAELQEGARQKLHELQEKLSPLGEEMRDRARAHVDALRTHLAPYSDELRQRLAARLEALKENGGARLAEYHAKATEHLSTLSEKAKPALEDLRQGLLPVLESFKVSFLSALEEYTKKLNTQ

Broadly, the Kd is the constant that tells how readily two partners part at equilibrium. Higher therefore signals weaker binding. With “UGGUAGAAUUCUCGC [tDR-GlyGCC-5'-tRH-3'-tRF-15]”, in series [1], the Kd worked out at 124 nM.

For “GCGCCGCUGGUGUAGUGGUAUCAUGCAAGA [tDR-GlyCCC-30]”, the Kd in series [2] amounted to 34000 nM.

As for “GCAUUGGUGGUUCAGUGGUAGAAUUCUCGC / GCGAGAAUUCUACCACUGAACCACCAAUGC [dsRNA-tDR-GlyGCC-30]”, the Kd in series [3] amounted to 972 nM.

As for “GCAUUGGUGGUUCAGUGGUAGAAUUCUCGC [tDR-GlyGCC-30 (5'-tRH-30)]”, the dissociation constant (Kd) in series [2] amounted to 259 nM; in series [4], 54 nM; in series [3] it was 153 nM; in series [1] it was 16 nM.

Consider “CUGCCACGCGGGAGGCCCGGGUUCGAUUCC [tDR-GlyGCC-3'-tRH-30]”, for which, in series [1], the Kd is 85 nM.

On to “CCGGCUAGCUCAGUCGGUAGAGCAUGAGAC [tDR-LysCTT-30]”, for which the Kd in series [2] was determined as 3800 nM.

For “GCAUUGGUGGUUCAG [tDR-GlyGCC-5'-tRH-5'tRF-15]”, the Kd in series [1] is 115 nM.
